Data on three molecules can be found in patent US20230203146A1 (Boehringer Ingelheim, published 2023).

A word on the IC50: it is the concentration that inhibits the measured activity by half. A higher IC50 goes with weaker potency. For orientation: Kd means the free concentration of one partner at which half of the binding sites on the other are occupied at equilibrium, for simple one-to-one binding. In general, koff refers to the first-order rate constant of dissociation. What is called kon is a measure of how fast the partners come together.

The target of test [1] is T1, FLAG-tagged recombinant human Ang1 (Alexis Biochemicals) (human, UniProt Q15389 20-498, limits assumed).
T1 construct: Bought reagent; also called hAng1; FLAG-hAng1
T1 sequence (looked up): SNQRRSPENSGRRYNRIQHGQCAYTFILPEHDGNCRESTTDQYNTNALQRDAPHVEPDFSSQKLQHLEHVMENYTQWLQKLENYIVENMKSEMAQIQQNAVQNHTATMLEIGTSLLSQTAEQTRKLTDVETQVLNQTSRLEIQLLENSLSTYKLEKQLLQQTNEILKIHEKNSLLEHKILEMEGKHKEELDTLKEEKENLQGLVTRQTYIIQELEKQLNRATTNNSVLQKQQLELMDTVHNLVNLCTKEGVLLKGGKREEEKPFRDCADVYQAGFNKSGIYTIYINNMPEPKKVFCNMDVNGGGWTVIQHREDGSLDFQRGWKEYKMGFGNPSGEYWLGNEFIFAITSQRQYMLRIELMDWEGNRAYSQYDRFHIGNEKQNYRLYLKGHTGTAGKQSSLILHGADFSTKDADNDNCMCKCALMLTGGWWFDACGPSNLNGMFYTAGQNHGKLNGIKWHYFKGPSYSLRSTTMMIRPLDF
The test can be described thus: competition ELISA, periplasmic extract, FLAG-hAng1 on hTie2/Fc. The procedure: In brief, human Tie2/Fc chimera (R&D Systems, Minneapolis, Minn., USA) is biotinylated using N-hydroxysulfosuccinimide ester of biotin (Thermo Fisher Scientific, Rockford, Ill., USA). […] To this mixture, the Acceptor beads and 0.3 nM biotinylated human Tie2/Fc chimeras are added and further incubated for 2 hours at room temperature. Finally, streptavidin conjugated Donor beads (Perkin Elmer, Waltham, Mass., US) are added and the mixture is incubated for an additional 2 hours at room temperature. Assay buffer is PBS+0.03% Tween-20+0.1% BSA. Fluorescence is measured using the Envision Multilabel Plate reader (Perkin Elmer, Waltham, Mass., USA) using an excitation wavelength of 680 nm and an emission wavelength of 520 nm. […] In brief, human or mouse Tie2/Fc chimera (R&D Systems, Minneapolis, Minn., USA) are immobilized at 2 μg/mL overnight at 4° C. in a 96-well MaxiSorp plate (Nunc, Wiesbaden, Germany). Wells are blocked with a 1% casein solution. […] This mixture is added to the Tie2/Fc coated well and incubated for 2 hours at room temperature. Residual binding of Ang is detected using HRP-conjugated anti-FLAG M2 antibody (Sigma, St Louis, Mo., USA).

The target in test [2] is T2, FLAG-tagged mouse Ang2 (mouse, UniProt O35608 19-496).
T2 construct: N-terminally FLAG-tagged, conditioned medium of HEK293T cells; also called mAng2; FLAG-mAng2
T2 sequence: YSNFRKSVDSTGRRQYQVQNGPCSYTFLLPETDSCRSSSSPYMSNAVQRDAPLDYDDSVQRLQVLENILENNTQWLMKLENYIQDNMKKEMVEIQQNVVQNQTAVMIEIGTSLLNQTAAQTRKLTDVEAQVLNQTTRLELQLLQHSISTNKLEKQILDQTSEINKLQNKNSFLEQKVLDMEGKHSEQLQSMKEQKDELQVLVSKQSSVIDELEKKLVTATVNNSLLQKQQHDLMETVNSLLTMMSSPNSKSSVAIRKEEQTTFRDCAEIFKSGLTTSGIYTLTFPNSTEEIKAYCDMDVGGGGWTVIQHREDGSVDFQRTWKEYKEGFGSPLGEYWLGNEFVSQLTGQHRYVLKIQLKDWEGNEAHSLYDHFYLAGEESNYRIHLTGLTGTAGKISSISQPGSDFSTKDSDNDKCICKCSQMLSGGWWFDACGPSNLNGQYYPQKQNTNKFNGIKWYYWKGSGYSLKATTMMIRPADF
The experiment in a line: competition ELISA: FLAG-mAng2 binding to coated mTie2-Fc. How it is done:
(§1) In brief, 2 μg/mL of recombinant mouse Tie2-Fc or cyno Tie2-Fc is coated overnight at 4° C. in a 96-well MaxiSorp plate (Nunc, Wiesbaden, Germany). Coated wells are blocked with a 1% casein solution.
For orientation: An ELISA detects its analyte on a solid surface through an enzyme-linked reagent.

Test [3] concerns the target T3, FLAG-tagged cynomolgus Ang2 (cynomolgus, UniProt O15123 19-496 (human entry), limits assumed).
T3 construct: N-terminally FLAG-tagged, conditioned medium of HEK293T cells; also called cAng2; FLAG-cAng2
T3 chain: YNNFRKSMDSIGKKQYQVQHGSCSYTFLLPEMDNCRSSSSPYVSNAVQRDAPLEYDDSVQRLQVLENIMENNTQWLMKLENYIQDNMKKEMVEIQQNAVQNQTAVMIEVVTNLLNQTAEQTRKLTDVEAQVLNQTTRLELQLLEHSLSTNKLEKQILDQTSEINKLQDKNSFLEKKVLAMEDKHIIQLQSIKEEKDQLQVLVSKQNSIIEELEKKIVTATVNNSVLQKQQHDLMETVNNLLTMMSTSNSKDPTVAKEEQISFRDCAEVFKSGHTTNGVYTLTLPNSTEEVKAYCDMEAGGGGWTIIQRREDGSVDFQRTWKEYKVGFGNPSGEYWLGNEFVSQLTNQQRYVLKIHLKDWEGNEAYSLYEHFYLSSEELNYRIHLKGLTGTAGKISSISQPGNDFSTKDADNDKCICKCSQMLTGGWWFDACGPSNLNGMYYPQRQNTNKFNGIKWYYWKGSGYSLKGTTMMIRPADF
The test can be described thus: competition ELISA: FLAG-cAng2 binding to coated cTie2-Fc. How it is done:
as §1

The target in test [4] is T4, recombinant cynomolgus Ang2-FLD (cynomolgus, UniProt A0A2K5VNX6 275-496).
T4 construct: domain: FLD; also called cyno Ang2-FLD
T4 sequence: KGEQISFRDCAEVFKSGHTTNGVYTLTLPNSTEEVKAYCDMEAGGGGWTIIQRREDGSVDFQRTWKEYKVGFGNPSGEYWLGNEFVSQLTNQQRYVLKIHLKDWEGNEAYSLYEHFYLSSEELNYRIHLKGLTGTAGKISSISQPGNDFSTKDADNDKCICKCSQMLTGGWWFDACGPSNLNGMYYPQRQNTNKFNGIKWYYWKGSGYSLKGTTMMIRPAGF
The experiment in a line: SPR (Biacore T100), VHH immobilized, Ang2-FLD injected. The procedure:
(§2) In brief, VHH and benchmark compounds are immobilized on a CM5 chip via amine coupling. […] Ang2-FLD species are allowed to associate for 2 min and to dissociate for 20 min at a flow rate of 45 μL/min. In between injections, the surfaces are regenerated with a 10 sec pulse of 25 mM NaOH and 60 sec stabilization period. Association/dissociation data are evaluated by fitting a 1:1 interaction model (Langmuir binding). The affinity constant KD is calculated from resulting association and dissociation rate constants kₐ and kd and are depicted in Table 8.

Test [5] has as its target T5, recombinant human Ang2-FLD (human, UniProt O15123 275-496, limits assumed).
T5 construct: domain: FLD
T5 sequence (looked up): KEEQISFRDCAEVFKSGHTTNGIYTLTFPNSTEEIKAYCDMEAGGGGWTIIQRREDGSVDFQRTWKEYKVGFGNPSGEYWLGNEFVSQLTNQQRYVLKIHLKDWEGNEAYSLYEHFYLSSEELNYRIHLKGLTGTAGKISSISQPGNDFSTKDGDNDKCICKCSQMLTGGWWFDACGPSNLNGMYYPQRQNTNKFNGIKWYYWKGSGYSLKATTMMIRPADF
Described as above. How it is done: as §2

Test [6] deals with T6, recombinant rat Ang2-FLD (rat, UniProt O35462 275-496, limits assumed).
T6 construct: domain: FLD
T6 sequence (looked up): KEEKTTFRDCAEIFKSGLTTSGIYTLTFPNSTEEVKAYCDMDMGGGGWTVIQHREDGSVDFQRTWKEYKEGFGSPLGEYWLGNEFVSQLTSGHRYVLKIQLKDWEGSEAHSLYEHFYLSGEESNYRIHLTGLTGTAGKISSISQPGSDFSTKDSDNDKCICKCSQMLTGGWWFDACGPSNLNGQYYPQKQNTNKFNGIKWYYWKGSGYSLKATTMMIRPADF
The description is as above. The procedure: as §2

Test [7] addresses T7, recombinant mouse Ang2-FLD (mouse, UniProt O35608 275-496, limits assumed).
T7 construct: domain: FLD
T7 sequence (looked up): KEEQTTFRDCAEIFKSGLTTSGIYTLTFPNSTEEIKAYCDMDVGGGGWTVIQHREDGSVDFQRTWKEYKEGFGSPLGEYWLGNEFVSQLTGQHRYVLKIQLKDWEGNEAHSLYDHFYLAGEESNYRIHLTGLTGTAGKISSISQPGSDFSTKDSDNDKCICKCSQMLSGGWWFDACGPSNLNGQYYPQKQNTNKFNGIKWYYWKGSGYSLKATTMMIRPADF
The test is described as above. How it is done:
as §2

B1: VHH 25B01 (VHH)
VHH: EVQLVESGGGLVQAGGSLRLSCAASGFTFDDYAIGWFRQAPGKEREGVSCISSSDGSTYYADSVKGRFTISSDNAKNTVYLQMNSLKPEDTAVYYCAAAWGASRLPIGTMPPYEYDYWGQGTQVTVSS
notes: Tested as periplasmic extract; also called 025B01; not shown: C-terminal c-myc tag and His6 tag
As for B1, the “% inh” value in test [1] was found to be 4%.

B2: VHH 00928 (VHH, not shown: small tags and cut ends)
VHH: EVQLVESGGGLVQPGGSLRLSCAASGFALDYYAIGWFRQAPGKEREGVSCISSSGGITYYADSVKGRFTISRDNSKNTVYLQMNSLRPEDTAVYYCATDSGGYIDYDCSGLGYDYWGQGTLVTVSS
Take B2: the values for the IC50 in test [2] and in test [3] were 0.2 nM and 0.39 nM, respectively. The Kd in test [4] amounted to 0.05 nM; in test [5] it was 0.064 nM; in test [6], 0.29 nM; in test [7], 0.17 nM. Moreover, the koff in test [4] is 4.9e-05 s⁻¹; in test [5], 4e-05 s⁻¹; in test [6], 5.4e-05 s⁻¹; in test [7], 7.3e-05 s⁻¹. The on-rate constant (kon) in test [4] amounted to 970000 M⁻¹ s⁻¹; in test [5], 620000 M⁻¹ s⁻¹; in test [6], 180000 M⁻¹ s⁻¹; in test [7], 420000 M⁻¹ s⁻¹.

B3: VHH 1E01 (VHH)
VHH: EVQLVESGGGLVQPGGSLRLSCVHSGTISSTHAMGWYRQAPGKQREHVATFTNRGSTYYAGSVKGRFTISRDNAKNTMYLQMNSLKPEDTAVYYCNTGPYWGQGTQVTVSS
notes: Tested as periplasmic extract; also called 001E01; not shown: C-terminal c-myc tag and His6 tag
In the case of B3, the “% inh” value in test [1] turned out to be 4%.
